Assays:
[1] = BTK FAC plasma stability assay, PBS buffer arm; format: physicochemical; conditions: for Plasma stability (h) PBS: incubation to 24 h
Description: (§1) Plasma stability was conducted in Dulbecco's PBS buffer, mouse plasma, rat plasma or human plasma frozen with K3-EDTA from BiolVT). Thawed plasma was centrifuged prior to warming for 5 minutes at 37° C. Working solutions were prepared from 10 mM DMSO solution to 500 µM in acetonitrile:water (1:1); 2 µL of working solution was added to 198 µL blank plasma or PBS and mixed manually. 4×45 µL of spiked matrix was aliquoted into glass incubation plates (96-well DW glass microplate) and sealed with blue silicon/PTFE seal; then incubated on a Thermo shaker (38° C. 300 RPM). Samples were prepared at 0, 2, 6 and 24 h timepoints, by protein precipitation with chilled acetonitrile containing internal standard Glyburide (0.2 µM). Precipitated samples were shaken for 10 minutes and stored at 4° C. until completion of the study. Following precipitation of the terminal sample, samples were frozen at −80° C. for 1 hour. Samples were then thawed prior to centrifugation (20 minutes, 4500 RPM at 4° C.). 50 µL of supernatant of each sample was transferred to 384 well analysis plate containing 30 µL of water. Semi quantitative analysis (analyte: internal standard peak area ratio) was performed by LC-MS/MS using a Sciex QTrap 5500.

[2] = BTK FAC plasma stability assay, mouse plasma; format: in vitro ADME; conditions: for Plasma stability (h) mouse / half-life at 5 µM: incubation to 24 h
Description: as §1

[3] = BTK FAC plasma stability assay, rat plasma; format: in vitro ADME; conditions: for Plasma stability (h) rat / half-life at 5 µM: incubation to 24 h
Description: as §1

[4] = BTK FAC plasma stability assay, dog plasma; format: in vitro ADME; conditions: for half-life at 5 µM: read-out: Plasma stability (h) dog (converted)

| Compound | % Release of degrader after 24 h PBS [1] | Plasma stability (h) PBS [1] | % Release of degrader after 24 h mouse [2] | Plasma stability (h) mouse [2] | % Release of degrader after 24 h rat [3] | Plasma stability (h) rat [3] | Plasma stability (h) dog [4] | % Release of degrader after 24 h dog [4] | half-life at 5 µM [2] | half-life at 5 µM [3] | half-life at 5 µM [4] |
| --- | --- | --- | --- | --- | --- | --- | --- | --- | --- | --- | --- |
| CCCCCCCCCCCN(C(=O)CCCCCCCCCC(=O)O)[C@H](CCC(=O)NCCOCCOCCOCCOCCOCCOCCOCCOCCOCCOCCOCCOCCC(=O)NCC(=O)OC(C)(C)c1ccc(C(=O)Nc2cc(F)cc(-c3ncnc4[nH]c(-c5ccc(CCN6CCC7(CC6)CCN(C(=O)c6ccc(OC)c(N8CCC(=O)NC8=O)c6)CC7)cc5)cc34)c2C)c(F)c1)C(=O)O [Example A3, (R)-50-Carboxy-2-(4-((3-(6-(4-(2-(9-(3-(2,4-dioxotetrahydropyrimidin-1(2H)-yl)-4-methoxybenzoyl)-3,9-diazaspiro[5.5]undecan-3-yl)ethyl)phenyl)-7H-pyrrolo[2,3-d]pyrimidin-4-yl)-5-fluoro-2-methylphenyl)carbamoyl)-3-fluorophenyl)-2-methyl-4,7,47,52-tetraoxo-51-undecyl-3,10,13,16,19,22,25,28,31,34,37,40,43-tridecaoxa-6,46,51-triazadohexacontan-62-oic acid] | 1.9% | >48 h | 5.2% | >48 h | 9% | >48 h | 44.4 h | 9.7% | – | – | – |
| CCCCCCCCCCCN(C(=O)CCCCCCCCCC(=O)O)[C@@H](CCC(=O)NCC(=O)OC(C)(C)c1ccc(C(=O)Nc2cc(F)cc(-c3ncnc4[nH]c(-c5ccc(CCN6CCC7(CC6)CCN(C(=O)c6ccc(OC)c(N8CCC(=O)NC8=O)c6)CC7)cc5)cc34)c2C)c(F)c1)C(=O)O [Example A6, (S)-11-((1-Carboxy-4-((2-((2-(4-((3-(6-(4-(2-(9-(3-(2,4-dioxotetrahydropyrimidin-1(2H)-yl)-4-methoxybenzoyl)-3,9-diazaspiro[5.5]undecan-3-yl)ethyl)phenyl)-7H-pyrrolo[2,3-d]pyrimidin-4-yl)-5-fluoro-2-methylphenyl)carbamoyl)-3-fluorophenyl)propan-2-yl)oxy)-2-oxoethyl)amino)-4-oxobutyl)(undecyl)amino)-11-oxoundecanoic acid] | 0.4% | >48 h | 37.4% | – | 21.1% | – | – | 4.6% | 10.7 h | 36.6 h | 12.7 h |
| CCCCCCCCCCCN(C(=O)CCCCCCCCCC(=O)O)C(CCC(=O)NCCOCCOCCOCCOCCC(=O)NCC(=O)OC(C)(C)c1ccc(C(=O)Nc2cc(F)cc(-c3ncnc4[nH]c(-c5ccc(CCN6CCC7(CC6)CCN(C(=O)c6ccc(OC)c(N8CCC(=O)NC8=O)c6)CC7)cc5)cc34)c2C)c(F)c1)C(=O)O (stereo not drawn) [Example A7, 26-Carboxy-2-(4-((3-(6-(4-(2-(9-(3-(2,4-dioxotetrahydropyrimidin-(2H)-yl)-4-methoxybenzoyl)-3,9-diazaspiro[5.5]undecan-3-yl)ethyl)phenyl)-7H-pyrrolo[2,3-d]pyrimidin-4-yl)-5-fluoro-2-methylphenyl)carbamoyl)-3-fluorophenyl)-2-methyl-4,7,23,28-tetraoxo-27-undecyl-3,10,13,16,19-pentaoxa-6,22,27-triazaoctatriacontan-38-oicacid] | 1.5% | >48 h | 53.6% | 10.1 h | – | – | – | – | – | – | – |
| CCCCCCCCCCCN(C(=O)CCCCCCCCCC(=O)O)C(CCC(=O)NCCOCCOCCOCCOCCOCCOCCOCCOCCC(=O)NCC(=O)OC(C)(C)c1ccc(C(=O)Nc2cc(F)cc(-c3ncnc4[nH]c(-c5ccc(CCN6CCC7(CC6)CCN(C(=O)c6ccc(OC)c(N8CCC(=O)NC8=O)c6)CC7)cc5)cc34)c2C)c(F)c1)C(=O)O (stereo not drawn) [Example A8, 38-Carboxy-2-(4-((3-(6-(4-(2-(9-(3-(2,4-dioxotetrahydropyrimidin-(2H)-yl)-4-methoxybenzoyl)-3,9-diazaspiro[5.5]undecan-3-yl)ethyl)phenyl)-7H-pyrrolo[2,3-d]pyrimidin-4-yl)-5-fluoro-2-methylphenyl)carbamoyl)-3-fluorophenyl)-2-methyl-4,7,35,40-tetraoxo-39-undecyl-3,10,13,16,19,22,25,28,31-nonaoxa-6,34,39-triazapentacontan-50-oic acid] | 2.8% | >48 h | 20.1% | >48 h | 18.1% | >48 h | >48 h | 13.1% | – | – | – |
| CCCCCCCCCCCN(C(=O)CCCCCCCCCC(=O)O)C(CCC(=O)NCCOCCOCCOCCOCCOCCOCCOCCOCCOCCOCCOCCOCCC(=O)N1CCC(F)(C(=O)OC(C)(C)c2ccc(C(=O)Nc3cc(F)cc(-c4ncnc5[nH]c(-c6ccc(CCN7CCC8(CC7)CCN(C(=O)c7ccc(OC)c(N9CCC(=O)NC9=O)c7)CC8)cc6)cc45)c3C)c(F)c2)CC1)C(=O)O (stereo not drawn) [Example A15, 44-Carboxy-1-(4-(((2-(4-((3-(6-(4-(2-(9-(3-(2,4-dioxotetrahydropyrimidin-1(2H)-yl)-4-methoxybenzoyl)-3,9-diazaspiro[5.5]undecan-3-yl)ethyl)phenyl)-7H-pyrrolo[2,3-d]pyrimidin-4-yl)-5-fluoro-2-methylphenyl)carbamoyl)-3-fluorophenyl)propan-2-yl)oxy)carbonyl)-4-fluoropiperidin-1-yl)-1,41,46-trioxo-45-undecyl-4,7,10,13,16,19,22,25,28,31,34,37-dodecaoxa-40,45-diazahexapentacontan-56-oic acid] | 0% | >48 h | 96.9% | <2 h | 39.4% | 30 h | 23 h | 22.5% | – | – | – |
| CCCCCCCCCCCN(C(=O)CCCCCCCCCC(=O)O)C(CCC(=O)NCCOCCOCCOCCOCCC(=O)NCC(=O)O[C@H]1CN(C(=O)Nc2cc(F)cc(-c3ncnc4[nH]c(-c5ccc(CCN6CCC7(CC6)CCN(C(=O)c6ccc(OC)c(N8CCC(=O)NC8=O)c6)CC7)cc5)cc34)c2C)C[C@@H]1CC(C)C)C(=O)O (stereo partly drawn) [Example A30, 23-Carboxy-1-(((3R,4S)-1-((3-(6-(4-(2-(9-(3-(2,4-dioxotetrahydropyrimidin-1(2H)-yl)-4-methoxybenzoyl)-3,9-diazaspiro[5.5]undecan-3-yl)ethyl)phenyl)-7H-pyrrolo[2,3-d]pyrimidin-4-yl)-5-fluoro-2-methylphenyl)carbamoyl)-4-isobutylpyrrolidin-3-yl)oxy)-1,4,20,25-tetraoxo-24-undecyl-7,10,13,16-tetraoxa-3,19,24-triazapentatriacontan-35-oic acid] | – | >72 h | – | <1 h | – | – | – | – | – | – | – |
| CCCCCCCCCCCN(C(=O)CCCCCCCCCC(=O)O)[C@@H](CCC(=O)NCC(=O)O[C@H]1CN(C(=O)Nc2cc(F)cc(-c3ncnc4[nH]c(-c5ccc(CCN6CCC7(CC6)CCN(C(=O)c6ccc(OC)c(N8CCC(=O)NC8=O)c6)CC7)cc5)cc34)c2C)C[C@@H]1CC(C)C)C(=O)O [Example A31, 11-(((S)-1-Carboxy-4-((2-(((3R,4S)-1-((3-(6-(4-(2-(9-(3-(2,4-dioxotetrahydropyrimidin-1(2H)-yl)-4-methoxybenzoyl)-3,9-diazaspiro[5.5]undecan-3-yl)ethyl)phenyl)-7H-pyrrolo[2,3-d]pyrimidin-4-yl)-5-fluoro-2-methylphenyl)carbamoyl)-4-isobutylpyrrolidin-3-yl)oxy)-2-oxoethyl)amino)-4-oxobutyl)(undecyl)amino)-11-oxoundecanoic acid] | – | >72 h | – | – | – | – | – | – | < 1 h | 1.2 h | 33.6 h |

Source: US20240216513A1, “FATTY ACID-BIFUNCTIONAL DEGRADER CONJUGATES AND THEIR METHODS OF USE” (Novartis AG, priority 2021, published 2024)
